Each sequence was assayed on Escherichia coli TOP10 (assay: shrunken log2 fold change of peptide-encoding DNA abundance (4.5 h post-induction vs induction); higher = less antimicrobial activity (less host growth inhibition)). Details: time post-induction: 4.5 h; library: site-saturation at positions 5, 18, 19, 20.
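Further: peptides expressed intracellularly from a pBAD plasmid library in pooled LB shake-flask culture, induced with 0.3% L-arabinose, DNA abundance read by NGS, three biological replicates, DESeq2 with apeglm shrinkage.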

Sequence	shrunken log2 fold change
RRIRSRPPRLPRPRPRPIDQPRP	-0.174
RRIRYRPPRLPRPRPRPTLWPRP	0.31
RRIRLRPPRLPRPRPRPASWPRP	0.454
RRIRGRPPRLPRPRPRPWGMPRP	0.0572
RRIRFRPPRLPRPRPRPRWFPRP	-0.111
RRIRARPPRLPRPRPRPLNTPRP	-0.169
RRIRERPPRLPRPRPRPYNNPRP	-0.822
RRIRSRPPRLPRPRPRPISFPRP	-0.216
RRIRVRPPRLPRPRPRPFDKPRP	-0.0577
RRIRRRPPRLPRPRPRPYACPRP	-0.207
RRIRYRPPRLPRPRPRPVKCPRP	-1.32
RRIRLRPPRLPRPRPRPHDYPRP	-0.398
RRIRQRPPRLPRPRPRPYNAPRP	-0.0247
RRIRIRPPRLPRPRPRPRVEPRP	-0.0648
RRIRRRPPRLPRPRPRPAQRPRP	0.414
RRIRPRPPRLPRPRPRPVMKPRP	-0.00931
RRIRLRPPRLPRPRPRPPSRPRP	0.175
RRIRWRPPRLPRPRPRPLFQPRP	-0.0127
RRIRPRPPRLPRPRPRPFKDPRP	-0.93
RRIRRRPPRLPRPRPRPATWPRP	0.359
RRIRSRPPRLPRPRPRPNVMPRP	-0.204
RRIRKRPPRLPRPRPRPHWTPRP	-0.0277

Sequence	shrunken log2 fold change
RRIRFRPPRLPRPRPRPQISPRP	-0.217
RRIRARPPRLPRPRPRPRSDPRP	0.257
RRIRVRPPRLPRPRPRPKDYPRP	-0.366
RRIRARPPRLPRPRPRPDTHPRP	0.0877
RRIRWRPPRLPRPRPRPHGWPRP	0.213
RRIRERPPRLPRPRPRPPNPPRP	0.216
RRIRRRPPRLPRPRPRPGGLPRP	0.289
RRIRLRPPRLPRPRPRPVSMPRP	-0.302
RRIRMRPPRLPRPRPRPDQQPRP	-0.0225
RRIRIRPPRLPRPRPRPQQQPRP	-0.061
RRIRVRPPRLPRPRPRPVTMPRP	-0.196
RRIRGRPPRLPRPRPRPTCKPRP	0.57
RRIRVRPPRLPRPRPRPKRNPRP	0.166
RRIRARPPRLPRPRPRPFENPRP	0.166
RRIRGRPPRLPRPRPRPMRDPRP	0.947
RRIRGRPPRLPRPRPRPERPPRP	1.28
RRIRFRPPRLPRPRPRPNHSPRP	-0.832
RRIRQRPPRLPRPRPRPWQVPRP	-0.154
RRIRFRPPRLPRPRPRPCGTPRP	-0.207
RRIRWRPPRLPRPRPRPMLLPRP	0.259
RRIRVRPPRLPRPRPRPEMHPRP	0.209
RRIRGRPPRLPRPRPRPNPQPRP	0.0794

Sequence	shrunken log2 fold change
RRIRDRPPRLPRPRPRPHNIPRP	-0.53
RRIRCRPPRLPRPRPRPMMPPRP	-0.11
RRIRCRPPRLPRPRPRPTNWPRP	-0.0072
RRIRFRPPRLPRPRPRPRHKPRP	0.202
RRIRTRPPRLPRPRPRPVEGPRP	-0.194
RRIRSRPPRLPRPRPRPFYGPRP	-0.507
RRIRCRPPRLPRPRPRPQENPRP	-0.0731
RRIRKRPPRLPRPRPRPMSVPRP	-0.39
RRIRPRPPRLPRPRPRPNLYPRP	-0.276
RRIRPRPPRLPRPRPRPQVAPRP	-0.0363
RRIRMRPPRLPRPRPRPDEDPRP	-0.0149
RRIRWRPPRLPRPRPRPPELPRP	0.38
RRIRWRPPRLPRPRPRPAWMPRP	0.139
RRIRTRPPRLPRPRPRPPQCPRP	0.0145
RRIRNRPPRLPRPRPRPFAYPRP	0.0803
RRIRPRPPRLPRPRPRPLNVPRP	-0.448
RRIRVRPPRLPRPRPRPPKTPRP	0.152
RRIRTRPPRLPRPRPRPGRFPRP	-0.0311
RRIRFRPPRLPRPRPRPIHHPRP	-0.0432
RRIRNRPPRLPRPRPRPPHKPRP	-0.136
RRIRLRPPRLPRPRPRPEIFPRP	0.161
RRIRCRPPRLPRPRPRPGKDPRP	0.124

Sequence	shrunken log2 fold change
RRIRTRPPRLPRPRPRPPAEPRP	0.378
RRIRYRPPRLPRPRPRPLVGPRP	-0.457
RRIRWRPPRLPRPRPRPFECPRP	-0.01
RRIRFRPPRLPRPRPRPTVTPRP	0.052
RRIRHRPPRLPRPRPRPTQEPRP	-0.0394
RRIRHRPPRLPRPRPRPTGGPRP	0.0928
RRIRYRPPRLPRPRPRPPCLPRP	-0.288
RRIRIRPPRLPRPRPRPQEMPRP	-0.379
RRIRMRPPRLPRPRPRPPWDPRP	0.931
RRIRKRPPRLPRPRPRPIRLPRP	-0.0783
RRIRWRPPRLPRPRPRPMHTPRP	0.643
RRIRFRPPRLPRPRPRPYHWPRP	-0.208
RRIRVRPPRLPRPRPRPNWTPRP	0.0136
RRIRPRPPRLPRPRPRPWMAPRP	-0.113
RRIRSRPPRLPRPRPRPTIEPRP	-0.0439
RRIRERPPRLPRPRPRPNDYPRP	-0.41
RRIRDRPPRLPRPRPRPPFRPRP	0.126
RRIRHRPPRLPRPRPRPYDYPRP	-0.276
RRIRIRPPRLPRPRPRPTCTPRP	-0.807
RRIRIRPPRLPRPRPRPARSPRP	0.0389
RRIRNRPPRLPRPRPRPFHPPRP	0.0752
RRIRTRPPRLPRPRPRPSRYPRP	-0.23

Sequence	shrunken log2 fold change
RRIRTRPPRLPRPRPRPTEEPRP	0.12
RRIRIRPPRLPRPRPRPILIPRP	-0.097
RRIRQRPPRLPRPRPRPSNHPRP	-0.346
RRIRFRPPRLPRPRPRPTIQPRP	-0.266
RRIRMRPPRLPRPRPRPLPWPRP	1.74
RRIRSRPPRLPRPRPRPKVIPRP	-0.0209
RRIRVRPPRLPRPRPRPMTHPRP	-0.352
RRIRERPPRLPRPRPRPRYQPRP	-0.227
RRIRLRPPRLPRPRPRPTSDPRP	0.0874
RRIRMRPPRLPRPRPRPSENPRP	-0.0243
RRIRSRPPRLPRPRPRPAINPRP	-0.131
RRIRNRPPRLPRPRPRPIWWPRP	-0.141
RRIRARPPRLPRPRPRPKIVPRP	-0.0715
RRIRDRPPRLPRPRPRPMGTPRP	-0.106
RRIRTRPPRLPRPRPRPPFRPRP	0.693
RRIRMRPPRLPRPRPRPHDHPRP	-0.0397
RRIRSRPPRLPRPRPRPYRLPRP	-0.279
RRIRARPPRLPRPRPRPLIDPRP	0.647
RRIRMRPPRLPRPRPRPESSPRP	0.135
RRIRSRPPRLPRPRPRPCIIPRP	0.00867
RRIRLRPPRLPRPRPRPWRIPRP	0.0246

Reference: the supplement of paper PMC9112550, “Optimization of the antimicrobial peptide Bac7 by deep mutational scanning” (BMC Biology, 2022)
